Source: the supplement of paper PMC10567573

B1: ZNF263 (parent)
chain: RTHTGEKPYKCTLCGENFSHRSNL
B2: CSTF3 (parent)
chain: YVPEKVKKAEKKLEENPYDLDAWS

Variants of: B1
Assay: protein stability index of a GFP-peptide fusion (GPS, HEK-293T) (PSI 1-6); higher = more stable
Settings: c terminus: a fixed tail appended
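Note: lentivirally expressed fusions sorted by FACS into six bins by GFP to DsRed ratio, PSI derived from sequencing read proportions per bin multiplied by bin number.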

Protein stability index of substitutions, site by site:
G5: W 2.4, D 2.05, M 2.13, S 1.7, A 1.59, I 2.06, Q 2.46, K 2.37, N 2.3, Y 1.63, F 1.86, E 2.46, T 2.24, V 1.83, R 2.2, L 1.88, H 2.22, C 3.14, P 1.88
H3: W 1.41, R 2.58, V 1.85, P 2, T 1.93, F 2.15, K 2.05, N 1.97, I 2.58, G 1.93, Y 1.93, A 2.27, Q 2.31, S 2.18, M 2.19, L 2.35, E 1.74, D 2.06, C 1.61
R1: D 1.93, L 2.39, C 3.43, Q 1.79, K 2.22, V 2.27, W 1.99, F 2.41, S 1.89, A 2.03, T 1.99, N 1.69, I 2.12, M 1.38, E 2.13, Y 2.17, H 3.08, G 1.8, P 1.98
T4: F 2.05, E 2.77, R 3.78, C 2.04, K 2.43, Y 2.43, P 2.34, L 1.79, H 1.91, D 1.87, S 2.03, V 1.69, A 2.47, M 2.1, W 1.75, N 2.1, Q 2.01, I 1.82, G 2.02
T2: C 2.07, N 2.28, L 2.17, Q 2.02, F 1.73, S 2.1, A 2.02, Y 1.45, G 1.74, R 3.06, V 2.52, E 1.76, P 2.34, D 2, K 2.7, I 1.98, H 2.21, M 1.97, W 2.35

Variants of: B2
Assay: as above
Settings: c terminus: a fixed tail appended

Protein stability index, by site and new letter:
K11: R 2.94, V 3.77, S 2.66, P 2.65, Q 3.48, Y 2.72, W 2.4
S24: I 1.86, D 2.21, Q 2.23, T 2.81, A 3.55, R 2.02, E 1.36, H 1.95, G 3.98, K 2.79, L 3.1, V 2.85, F 2.83, P 2.56, W 1.66, Y 3.69, M 2.15, C 3.61, N 2.26
L13: P 2.46, T 1.92, G 2.23, R 2.67, Y 1.87, K 2.5, I 3.1, V 2.21, Q 2.36, F 2.02, M 3.19, A 2.25, H 2.49, W 2.45, S 3.52, D 2.22, E 2.86
D21: Q 2.86, G 2.66, Y 2.19, L 1.99, R 2.03, S 2.21, A 2.98, N 4.07, H 2.43, F 2.63, P 1.43, I 3.3, M 3.19, E 3.37, W 2.24, V 1.83
L20: P 2.23, Q 2.79, R 2.9, E 1.76, I 1.97, V 3.2, Y 2.13, W 1.55, A 2.54, S 2.24, H 2.84, D 1.73, C 2.71, G 2.15, T 3.25, M 1.91, K 1.96, F 1.44
P17: H 2.04, W 2.5, M 2.48, F 1.95, S 2.37, C 2.34, D 3.55, G 2.39, R 2.29, E 2.63, N 2.52, T 3.18, K 1.32, Q 1.22, L 3.01, V 1.43, Y 2.43, I 2.32, A 2.45
A22: Q 2.98, E 2.29, F 1.8, W 2.73, I 2.39, R 2.65, V 3.55, D 1.67, M 2.48, T 1.88, K 1.36, P 2.47, S 2.38, N 2.26, G 2.4, H 3.16, L 3.05, Y 2.36, C 2.59
E15: W 2.8, R 3.05, M 2.99, Y 3.42, H 2.05, S 3.34, T 1.58, Q 3.42, K 3.45, V 3.54, A 3.94, G 2.88, F 2.55, L 3.23, D 2.86, C 2.68, P 2.47
Y18: S 2.46, L 2.15, N 2.38, R 2.77, P 2.71, H 2.12, V 1.45, F 2.55, W 1.61, Q 2.17, K 3.33, A 2.62, D 5.04, E 1.93, M 2.58, G 2.35, I 2.47, T 2.27, C 2.88
W23: N 3.51, H 1.95, M 3.05, G 3.81, L 2.93, R 2.81, T 2.64, A 1.81, Q 1.79, F 3.27, I 2.37, D 1.91, S 2.6, V 2.38, C 2.38, Y 1.77, K 1.84, E 1.28, P 3.22
D19: S 2.91, E 2.57, P 2.59, R 2.04, M 2.14, A 2.2, H 1.58, Q 3.34, W 2.98, Y 2.69, G 3.95, T 2.34, K 3.97, I 2.28, N 2.54, L 1.62
K12: G 2.68, A 2.82, W 2.9, T 3.28, P 3.32, R 2.88, Y 2.72, C 2.49, D 2.9, Q 3.16, S 3.79, V 2.59, H 3.19, L 2.95, I 2.7, E 2.41, M 2.6, F 3.31, N 2.92
E14: G 2.17, P 3.04, C 3.58, L 2.35, R 2.36, W 3.09, F 1.88, T 2.26, S 3.27, H 2.92, V 2.25, I 3.95, A 2.61, N 2.18, Y 2.2, Q 2.02, K 2.88
N16: E 3.13, D 2.73, P 1.67, K 3.09, M 1.81, C 1.67, A 2.04, R 2.64, G 2.54, L 3.68, T 2.27, S 2.65, F 3.03, Q 2.24, W 2.08, I 1.05, Y 2.56
